Laboratory results from patent publication US20250043302A1, “MUTATED HYDROXYPHENYLPYRUVATE DIOXYGENASE POLYPEPTIDE, AND CODING GENE AND USE THEREOF” (BEIJING DABEINONG BIOTECHNOLOGY CO., LTD., priority 2021, published 2025).

Experiments:
Assay type in all cases: in vivo
[1] = system: Arabidopsis thaliana T1 plants; test: Mesotrione tolerance of transgenic Arabidopsis thaliana T1 plants (spray, bleached leaf area grade, damage score); design: Scores: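 damage score 0-100 computed as Σ(N×S)/(T×M)×100 over grades 0-3 with higher meaning more damage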; settings: Arabidopsis thaliana T1 plants; for Grade 0 (classification and statistics of the grade of pesticide damage; number of plants) / Grade 1 (classification and statistics of the grade of pesticide damage; number of plants) / Grade 2 (classification and statistics of the grade of pesticide damage; number of plants) / Grade 3 (classification and statistics of the grade of pesticide damage; number of plants): 16 plants
In short: (§1)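 Damage was assessed by bleaching grade (0 none; 1 <50%; 2 >50%; 3 100% of leaf area) one week after spraying. Sprays on 18-day-old T1 and wild-type plants used field-rate multiples: topramezone 25–200, isoxaflutole 35–280, mesotrione 52.5–420 g ai/ha.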

[2] = system: Arabidopsis thaliana T1 plants; test: Isoxaflutole tolerance of transgenic Arabidopsis thaliana T1 plants (spray, bleached leaf area grade, damage score); design: Scores (pesticide damage): scale not given here; settings: spray, Arabidopsis thaliana T1 plants; for Classification and statistics of the grade of pesticide damage: Grade 0 (number of plants) / Classification and statistics of the grade of pesticide damage: Grade 1 (number of plants) / Classification and statistics of the grade of pesticide damage: Grade 2 (number of plants) / Classification and statistics of the grade of pesticide damage: Grade 3 (number of plants): 16 plants
In short: as §1

[3] = system: Arabidopsis thaliana T1 plants; test: Topramezone tolerance of transgenic Arabidopsis thaliana T1 plants (spray, bleached leaf area grade, damage score); settings: 7 DAT, Table 4; for Classification and statistics of the grade of pesticide damage: Grade 0 / Classification and statistics of the grade of pesticide damage: Grade 1 / Classification and statistics of the grade of pesticide damage: Grade 2 / Classification and statistics of the grade of pesticide damage: Grade 3: number of plants; for Scores: pesticide damage score 0-100
In short: as §1

[4] = isoxaflutole 35 g ai/ha (0.5x field concentration)
[5] = isoxaflutole 70 g ai/ha (1x field concentration)

Row | Molecule | Resistance evaluation ([1]; mesotrione 52.5 g ai/ha) | Scores ([1]; mesotrione 52.5 g ai/ha) | Grade 0 (classification and statistics of the grade of pesticide damage; number of plants) ([1]; mesotrione 52.5 g ai/ha) | Grade 1 (classification and statistics of the grade of pesticide damage; number of plants) ([1]; mesotrione 52.5 g ai/ha) | Grade 2 (classification and statistics of the grade of pesticide damage; number of plants) ([1]; mesotrione 52.5 g ai/ha) | Grade 3 (classification and statistics of the grade of pesticide damage; number of plants) ([1]; mesotrione 52.5 g ai/ha) | Resistance evaluation ([1]; mesotrione 105 g ai/ha) | Scores ([1]; mesotrione 105 g ai/ha) | Grade 0 (classification and statistics of the grade of pesticide damage; number of plants) ([1]; mesotrione 105 g ai/ha) | Grade 1 (classification and statistics of the grade of pesticide damage; number of plants) ([1]; mesotrione 105 g ai/ha) | Grade 2 (classification and statistics of the grade of pesticide damage; number of plants) ([1]; mesotrione 105 g ai/ha) | Grade 3 (classification and statistics of the grade of pesticide damage; number of plants) ([1]; mesotrione 105 g ai/ha) | Resistance evaluation [2, 4] | Scores (pesticide damage) [2, 4] | Classification and statistics of the grade of pesticide damage: Grade 0 (number of plants) [2, 4] | Classification and statistics of the grade of pesticide damage: Grade 1 (number of plants) [2, 4] | Classification and statistics of the grade of pesticide damage: Grade 2 (number of plants) [2, 4] | Classification and statistics of the grade of pesticide damage: Grade 3 (number of plants) [2, 4] | Resistance evaluation [2, 5] | Scores (pesticide damage) [2, 5] | also measured
1 | ZmHPPD-02: nucleotide sequence encoding wild-type Zea mays HPPD; vector DBN11766 (nucleic acid, ZmHPPD-02 Nucleotide Sequence, vector DBN11766) DNA: ATGCCACCCACACCCACAGCAGCAGCGGCGGGCGCAGCGGTCGCAGCGGCGTCAGCGGCGGAGCAAGCGGCGTTCAGATTGGTTGGTCACCGCAACTTCGTGAGATTCAATCCTCGCTCAGATAGATTCCATACTCTGGCCTTCCACCATGTTGAGCTTTGGTGCGCTGATGCTGCTTCTGCTGCTGGAAGGTTCAGCTTCGGTTTGGGTGCTCCCCTCGCTGCTAGATCTGATTTGAGCACTGGTAACTCAGCACATGCTTCCCTCCTGCTTAGATCTGGCTCTCTGAGCTTCCTTTTCACTGCTCCATATGCTCATGGTGCTGATGCTGCTACAGCTGCTCTCCCTTCATTCTCCGCTGCTGCTGCTAGGAGATTCGCTGCTGATCACGGATTGGCTGTGAGGGCTGTTGCACTTAGAGTTGCTGATGCTGAGGAGGCCTTCCGCACCTCTGTTGCTGCTGGAGCCAGACCAGCTTTCGGACCTGTTGATCTCGGAAGGGGTTTCCGCCTGGCTGAGGTGGAGCTTTACGGCGATGTGGTTCTGCGCTACGTTAGCTATCCTGATGGTGCTGCTGGTGAACCTTTCCTTCCAGGATTCGAGGGTGTGGCCTCACCAGGTGCCGCTGATTACGGCCTGTCCAGATTCGACCACATTGTTGGAAATGTTCCTGAGCTTGCTCCAGCTGCTGCCTACTTCGCTGGCTTCACCGGATTCCATGAGTTCGCCGAGTTCACCACTGAGGATGTGGGAACTGCTGAGTCTGGTTTGAATAGCATGGTGCTCGCCAACAATTCAGAGAACGTTTTGCTCCCTCTGAATGAGCCCGTGCACGGAACAAAGAGAAGGTCCCAGATTCAAACCTTCTTGGATCACCACGGCGGCCCAGGTGTTCAGCATATGGCTCTCGCCTCCGATGACGTGTTGAGAACCCTCAGGGAGATGCAAGCCAGGTCTGCTATGGGTGGCTTCGAGTTCATGGCCCCACCTACAAGCGATTACTATGATGGTGTGCGCAGAAGGGCTGGCGACGTTCTTACCGAGGCTCAGATCAAGGAGTGCCAAGAGCTGGGCGTGCTTGTTGATAGAGATGACCAGGGAGTTCTGCTTCAAATTTTCCCCAAGCCAGTGGGCGACAGGCCTACTTTGTTCCTCGAGATTATCCAGAGAATCGGATGCATGGAGAGGGATGAGAAGGGTCAGGAGTACCAAAAGGGAGGTTGCGGCGGATTCGGCAAGGGAAATTTCTCACAACTCTTCAAGTCCATCGAGGACTATGAAAAGAGTCTGGAAGCGATGCAGGCAGCAGCAGCAGCAACCGCACAGGGGTCGTGA | Non-resistant | 100 | 0 | 0 | 0 | 16 | Non-resistant | 100 | 0 | 0 | 0 | 16 | Non-resistant | 100 | 0 | 0 | 0 | 16 | Non-resistant | 100 | Classification and statistics of the grade of pesticide damage: Grade 0 (number of plants) [2, 5]: 0; Classification and statistics of the grade of pesticide damage: Grade 1 (number of plants) [2, 5]: 0; Classification and statistics of the grade of pesticide damage: Grade 2 (number of plants) [2, 5]: 0; Classification and statistics of the grade of pesticide damage: Grade 3 (number of plants) [2, 5]: 16; Classification and statistics of the grade of pesticide damage: Grade 0 ([3]; topramezone 25 g ai/ha (1×)): 0; Classification and statistics of the grade of pesticide damage: Grade 1 ([3]; topramezone 25 g ai/ha (1×)): 0; Classification and statistics of the grade of pesticide damage: Grade 2 ([3]; topramezone 25 g ai/ha (1×)): 0; Classification and statistics of the grade of pesticide damage: Grade 3 ([3]; topramezone 25 g ai/ha (1×)): 16; Classification and statistics of the grade of pesticide damage: Grade 0 ([3]; topramezone 100 g ai/ha (4×)): 0; Classification and statistics of the grade of pesticide damage: Grade 1 ([3]; topramezone 100 g ai/ha (4×)): 0; Classification and statistics of the grade of pesticide damage: Grade 2 ([3]; topramezone 100 g ai/ha (4×)): 0; Classification and statistics of the grade of pesticide damage: Grade 3 ([3]; topramezone 100 g ai/ha (4×)): 16; Scores ([3]; topramezone 25 g ai/ha (1×)): 100; Scores ([3]; topramezone 100 g ai/ha (4×)): 100; Resistance evaluation ([3]; topramezone 25 g ai/ha (1×)): non-resistant (non-resistant plants (scores 68-100)); Resistance evaluation ([3]; topramezone 100 g ai/ha (4×)): non-resistant (non-resistant plants (scores 68-100))
2 | HvHPPDm-F383W-02: nucleotide sequence encoding Hordeum vulgare HPPD with F383W; vector DBN11764 (nucleic acid, HvHPPDm-F383W-02 Nucleotide Sequence, vector DBN11764) DNA: ATGCCGCCGACGCCCACCACCCCAGCAGCTACCGGAGCTGCGGCTGCAGTAACCCCTGAGCATGCTCGGCCCCACAGGATGGTGAGGTTTAATCCAAGATCAGATCGTTTTCATACACTCTCGTTCCACCATGTTGAGTTCTGGTGCGCCGACGCGGCTTCAGCGGCCGGGAGGTTCGCCTTCGCGCTGGGGGCCCCTCTTGCCGCGCGTAGTGATTTGTCTACTGGGAATTCAGCGCACGCGTCCCAGCTTCTCCGAAGCGGCAGTCTCGCCTTTCTCTTCACTGCACCATATGCAAATGGATGTGATGCAGCAACTGCTTCCCTGCCGAGCTTTTCTGCGGATGCCGCGAGGCGATTCAGTGCTGACCATGGGATCGCCGTCCGGTCAGTTGCTCTTAGAGTGGCTGATGCTGCTGAGGCATTCAGGGCTTCAAGGCGTCGTGGTGCACGCCCGGCGTTTGCCCCGGTTGATCTTGGGCGGGGGTTTGCTTTTGCAGAGGTGGAGCTGTACGGCGACGTGGTGCTCCGATTTGTTTCTCACCCGGACGGCACTGATGTGCCCTTCTTGCCAGGATTTGAAGGTGTGACCAACCCTGATGCCGTGGATTATGGACTCACAAGATTTGATCATGTGGTTGGCAATGTTCCTGAATTGGCACCTGCTGCCGCTTACATCGCAGGTTTTACTGGCTTCCATGAATTTGCTGAATTCACGGCGGAGGATGTTGGTACAACTGAGTCAGGGCTGAACAGTGTTGTTTTAGCCAACAACTCAGAAGGAGTTCTCCTTCCCTTGAATGAACCTGTTCATGGAACCAAGCGCCGCTCCCAAATTCAAACATTTCTTGAGCACCACGGCGGCCCTGGTGTTCAACATATTGCTGTCGCCTCTAGCGACGTCCTGCGTACATTACGCAAGATGAGGGCTCGGTCCGCAATGGGTGGTTTCGACTTCCTCCCTCCACCATTGCCAAAATATTATGAAGGCGTCAGAAGACTTGCAGGAGATGTCCTCTCTGAAGCTCAGATCAAGGAGTGCCAAGAACTTGGCGTCTTGGTTGATAGAGATGACCAAGGAGTACTTCTGCAGATATTTACAAAACCCGTTGGTGACAGGCCAACTCTTTGGCTGGAGATGATTCAGAGAATTGGCTGCATGGAGAAAGATGAAAGAGGCGAGGAGTACCAGAAGGGTGGTTGTGGAGGCTTTGGAAAAGGAAACTTCTCAGAGCTGTTCAAGTCCATAGAAGATTACGAGAAAAGTCTAGAAGCCAAGCAGTCTGCTGCAGTGCAAGGTTCCTGA | Moderately | 33 | 2 | 12 | 2 | 0 | Non-resistant | 100 | 0 | 0 | 0 | 16 | Poorly | 67 | 0 | 1 | 14 | 1 | Non-resistant | 100 | Classification and statistics of the grade of pesticide damage: Grade 0 (number of plants) [2, 5]: 0; Classification and statistics of the grade of pesticide damage: Grade 1 (number of plants) [2, 5]: 0; Classification and statistics of the grade of pesticide damage: Grade 2 (number of plants) [2, 5]: 0; Classification and statistics of the grade of pesticide damage: Grade 3 (number of plants) [2, 5]: 16; Classification and statistics of the grade of pesticide damage: Grade 0 ([3]; topramezone 25 g ai/ha (1×)): 4; Classification and statistics of the grade of pesticide damage: Grade 1 ([3]; topramezone 25 g ai/ha (1×)): 6; Classification and statistics of the grade of pesticide damage: Grade 2 ([3]; topramezone 25 g ai/ha (1×)): 5; Classification and statistics of the grade of pesticide damage: Grade 3 ([3]; topramezone 25 g ai/ha (1×)): 1; Classification and statistics of the grade of pesticide damage: Grade 0 ([3]; topramezone 100 g ai/ha (4×)): 0; Classification and statistics of the grade of pesticide damage: Grade 1 ([3]; topramezone 100 g ai/ha (4×)): 0; Classification and statistics of the grade of pesticide damage: Grade 2 ([3]; topramezone 100 g ai/ha (4×)): 0; Classification and statistics of the grade of pesticide damage: Grade 3 ([3]; topramezone 100 g ai/ha (4×)): 16; Scores ([3]; topramezone 25 g ai/ha (1×)): 40; Scores ([3]; topramezone 100 g ai/ha (4×)): 100; Resistance evaluation ([3]; topramezone 25 g ai/ha (1×)): poorly; Resistance evaluation ([3]; topramezone 100 g ai/ha (4×)): non-resistant (non-resistant plants (scores 68-100))
